Among the data in article PMC2040504 are IC50 values, retold here.

This experiment concerns the target CXCR4 (human (endogenous in CEM)) (UniProt P61073). Briefly: radioligand binding; competition: 0.25 nM 125I-CXCL12α and a range of concentrations of unlabelled CXCL12 (α, γ or γ-m1) on CEM cells (10^7 cells/ml), 100 µl PBS, 1 h, 4°C; cell-associated radioactivity counted.

One may read the IC50 as the concentration needed to halve the response being measured.

UniProt P61073, sequence (P61073 whole entry): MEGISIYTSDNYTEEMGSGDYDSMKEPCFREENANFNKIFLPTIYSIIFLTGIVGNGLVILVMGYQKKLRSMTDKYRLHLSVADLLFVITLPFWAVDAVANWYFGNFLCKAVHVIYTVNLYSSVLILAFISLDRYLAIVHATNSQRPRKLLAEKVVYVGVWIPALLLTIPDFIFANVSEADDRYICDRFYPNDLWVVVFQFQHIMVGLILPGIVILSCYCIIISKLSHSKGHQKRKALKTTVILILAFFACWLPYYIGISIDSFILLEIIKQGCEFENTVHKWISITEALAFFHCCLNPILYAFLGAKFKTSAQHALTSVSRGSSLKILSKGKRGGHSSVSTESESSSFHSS

CXCL12γ (ligand): the 50% inhibitory concentration (IC50) was 0.35 µM.
